Laboratory results taken from the supplement of paper PMC7877785.
± gives the uncertainty stated by the source.

Test: self-splicing fitness, log relative to wild type (ln ratio); higher = more splicing; Tetrahymena group I intron in knt gene, E. coli kanamycin selection, DiMSum; sequences stand for … in CUCUCU…GGAGGGAAAAGUUAUCAGGCAUGCACCUGGUAGCUAGUCUUUAAACCAAUAGAUUGCAUCGGUUUAAAAGGCAAGACCGUCAAAUUGCGGGAAAGGGGUCAACAGCCGUUCAGUACCAAGUCUCAGGGGAAACUUUGAGAUGGCCUUGCAAAGGGUAUGGUAAUAAGCUGACGGACAUGGUCCUAACCACGCAGCCAAGUCCUAAGUCAACAGAUCUUCUGUUGAUAUGGAUGCAGUUCACAGACUAAAUGUCGGUCGGGGAAGAUGUAUUCUUCUCAUAAGAUAUAGUCGGACCUCUCCUUAAUGGGAGCUAGCGGAUGAAGUGAUGCAACACUGGAGCCGCUGGGAACUAAUUUGUAUGCGAAAGUAUAUUGAUUAGUUUUGGAGUACUCGUGGUCG
Summary of the method: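 Colonies from six replicate transformations of E. coli BL21(DE3) were pooled and amplicon-sequenced on an Illumina HiSeq 2500. The library placed an intron with all eight P1ex-region nucleotides randomised inside the knt kanamycin-resistance gene on pET-22b(+), and cells grew overnight at 37°C or 30°C on LB agar with or without 25 μg/mL kanamycin (plus 100 μg/mL carbenicillin, 50 μM IPTG, 0.2% rhamnose). Fitness is the DiMSum error-weighted combination of wild-type-normalised replicate fold changes, kanamycin versus none.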

Row | Sequence | self-splicing fitness (ln) (30 °C) | self-splicing fitness (ln) (37 °C)
1 | CAUAAGCAAUAUUACGUCUU | -3.71 ± 0.17 | -2.41 ± 0.19
2 | CAUCAGCAAUAUUACGAAAG | -0.638 ± 0.065 | -0.249 ± 0.087
3 | CAUCAGCAAUAUUACGAAGG | -0.555 ± 0.048 | -0.58 ± 0.066
4 | CAUCAGCAAUAUUACGAAUC | -1.97 ± 0.13 | -1.25 ± 0.12
5 | CAUCAGCAAUAUUACGACAC | -1.78 ± 0.21 | -3.05 ± 0.37
6 | CAUCAGCAAUAUUACGACAG | 0.0306 ± 0.087 | 0.00869 ± 0.13
7 | CAUCAGCAAUAUUACGACUC | -1.82 ± 0.26 | -0.687 ± 0.23
8 | CAUCAGCAAUAUUACGAGUG | -2.26 ± 0.11 | -0.515 ± 0.1
9 | CAUCAGCAAUAUUACGAGUU | -4.08 ± 0.19 | -2.53 ± 0.12
10 | CAUCAGCAAUAUUACGAUAA | -1.46 ± 0.092 | -0.079 ± 0.088
11 | CAUCAGCAAUAUUACGAUAC | -2.95 ± 0.16 | -1.75 ± 0.16
12 | CAUCAGCAAUAUUACGCAAA | -2.39 ± 0.15 | -2.48 ± 0.21
13 | CAUCAGCAAUAUUACGGAGA | -1.78 ± 0.14 | -1.3 ± 0.12
14 | CAUCAGCAAUAUUACGGAGU | -2.65 ± 0.12 | -0.842 ± 0.11
15 | CAUCAGCAAUAUUACGGAUC | -1.79 ± 0.088 | 0.216 ± 0.11
16 | CAUCAGCAAUAUUACGGCAA | -3.37 ± 0.21 | -2.1 ± 0.2
17 | CAUCAGCAAUAUUACGGGAG | -0.766 ± 0.054 | -0.2 ± 0.075
18 | CAUCAGCAAUAUUACGGUAU | -2.95 ± 0.13 | -1.13 ± 0.14
19 | CAUCAGCAAUAUUACGUAUA | -1.68 ± 0.095 | -0.354 ± 0.11
20 | CAUCAGCAAUAUUACGUCAU | -3.06 ± 0.1 | -1.78 ± 0.12
21 | CAUCAGCAAUAUUACGUCUC | -3.16 ± 0.19 | -1.75 ± 0.17
22 | CAUCAGCAAUAUUACGUGUG | -2.72 ± 0.092 | -1.38 ± 0.08
23 | CAUCAGCAAUAUUACGUUAU | -3.34 ± 0.12 | -2.02 ± 0.11
24 | CAUCAGCAAUAUUACGUUGG | -1.58 ± 0.059 | -0.639 ± 0.067
25 | CAUGAGCAAUAUUACGACCG | -0.701 ± 0.12 | 0.276 ± 0.14

Row | Sequence | self-splicing fitness (ln) (30 °C) | self-splicing fitness (ln) (37 °C)
26 | CAUGAGCAAUAUUACGACGA | -2.3 ± 0.3 | -1.85 ± 0.21
27 | CAUGAGCAAUAUUACGAGCG | -0.045 ± 0.092 | 0.443 ± 0.11
28 | CAUGAGCAAUAUUACGAUGA | -3.5 ± 0.2 | -2.48 ± 0.15
29 | CAUGAGCAAUAUUACGAUGG | -1.36 ± 0.1 | -0.83 ± 0.13
30 | CAUGAGCAAUAUUACGAUGU | -2.32 ± 0.19 | -2.72 ± 0.36
31 | CAUGAGCAAUAUUACGGGGA | -3.14 ± 0.19 | -3.03 ± 0.22
32 | CAUGAGCAAUAUUACGGGGC | -4.13 ± 0.43 | -2.35 ± 0.34
33 | CAUGAGCAAUAUUACGGUCA | -2.96 ± 0.2 | -2.57 ± 0.22
34 | CAUGAGCAAUAUUACGGUCU | -3.11 ± 0.28 | -1.2 ± 0.18
35 | CAUGAGCAAUAUUACGUCAA | -4.04 ± 0.33 | -2.64 ± 0.33
36 | CAUGAGCAAUAUUACGUUAA | -3.17 ± 0.32 | -2.29 ± 0.26
37 | CAUUAGCAAUAUUACGAAGC | -2.81 ± 0.32 | -2.44 ± 0.49
38 | CAUUAGCAAUAUUACGACAG | 0.268 ± 0.06 | 0.168 ± 0.071
39 | CAUUAGCAAUAUUACGAGGA | -2.75 ± 0.35 | –
40 | CAUUAGCAAUAUUACGAGUC | – | -1.48 ± 0.37
41 | CAUUAGCAAUAUUACGCAAA | – | -2.25 ± 0.32
42 | CAUUAGCAAUAUUACGCACA | -1.01 ± 0.16 | -0.408 ± 0.13
43 | CAUUAGCAAUAUUACGCACG | -0.832 ± 0.12 | 0.325 ± 0.14
44 | CAUUAGCAAUAUUACGCAUU | -3.32 ± 0.15 | -1.62 ± 0.094
45 | CAUUAGCAAUAUUACGCGAA | -2.65 ± 0.19 | -1.17 ± 0.19
46 | CAUUAGCAAUAUUACGCGGU | -2.75 ± 0.33 | -2.05 ± 0.42
47 | CAUUAGCAAUAUUACGCGUA | -1.76 ± 0.22 | -1.2 ± 0.18
48 | CAUUAGCAAUAUUACGCUGA | -3.13 ± 0.24 | -1.96 ± 0.26
49 | CAUUAGCAAUAUUACGCUUG | -2.46 ± 0.2 | -2.6 ± 0.2
50 | CAUUAGCAAUAUUACGGAAC | – | -0.879 ± 0.24

Row | Sequence | self-splicing fitness (ln) (30 °C) | self-splicing fitness (ln) (37 °C)
51 | CAUUAGCAAUAUUACGGACU | -2.75 ± 0.28 | -1.89 ± 0.23
52 | CAUUAGCAAUAUUACGGCAA | -2 ± 0.22 | -3.22 ± 0.47
53 | CAUUAGCAAUAUUACGGCUG | 0.0732 ± 0.078 | 0.0962 ± 0.088
54 | CAUUAGCAAUAUUACGGGGA | -2.73 ± 0.21 | -1.77 ± 0.26
55 | CAUUAGCAAUAUUACGGGUC | -3.51 ± 0.29 | -1.5 ± 0.23
56 | CAUUAGCAAUAUUACGGGUG | -3.18 ± 0.16 | -1.57 ± 0.14
57 | CAUUAGCAAUAUUACGGUGG | -0.719 ± 0.066 | 0.024 ± 0.093
58 | CAUUAGCAAUAUUACGUAAC | -3.01 ± 0.26 | -2.14 ± 0.25
59 | CAUUAGCAAUAUUACGUAAU | -2.73 ± 0.19 | -1.96 ± 0.21
60 | CAUUAGCAAUAUUACGUUGC | -3.96 ± 0.19 | -2.8 ± 0.19
61 | CCAAAGCAAUAUUACGAAGA | -3.61 ± 0.27 | -2.2 ± 0.22
62 | CCAAAGCAAUAUUACGAAUC | -2.82 ± 0.33 | -2.52 ± 0.34
63 | CCAAAGCAAUAUUACGACCG | -0.022 ± 0.096 | -0.0691 ± 0.14
64 | CCAAAGCAAUAUUACGAGUU | -4.72 ± 0.34 | -2.31 ± 0.16
65 | CCAAAGCAAUAUUACGAUAC | -2.15 ± 0.27 | –
66 | CCAAAGCAAUAUUACGAUAU | -4.16 ± 0.15 | -2.79 ± 0.13
67 | CCAAAGCAAUAUUACGAUCG | 0.0481 ± 0.058 | -0.183 ± 0.075
68 | CCAAAGCAAUAUUACGAUGC | -3.78 ± 0.19 | -3.64 ± 0.24
69 | CCAAAGCAAUAUUACGAUGG | -4.15 ± 0.22 | -2.29 ± 0.22
70 | CCAAAGCAAUAUUACGAUGU | -2.93 ± 0.1 | -2.1 ± 0.11
71 | CCAAAGCAAUAUUACGCCGC | – | -2.58 ± 0.38
72 | CCAAAGCAAUAUUACGCCUG | -0.536 ± 0.055 | -0.707 ± 0.07
73 | CCAAAGCAAUAUUACGCGAU | -3.16 ± 0.21 | -2.79 ± 0.28
74 | CCAAAGCAAUAUUACGCGUA | -4.41 ± 0.34 | -3.75 ± 0.32
75 | CCAAAGCAAUAUUACGCGUG | -1.93 ± 0.067 | -1.26 ± 0.066

Row | Sequence | self-splicing fitness (ln) (30 °C) | self-splicing fitness (ln) (37 °C)
76 | CCAAAGCAAUAUUACGGUCU | -3.75 ± 0.16 | -3.15 ± 0.19
77 | CCAAAGCAAUAUUACGUACC | -3.76 ± 0.37 | -2.19 ± 0.32
78 | CCAAAGCAAUAUUACGUAUA | -4.79 ± 0.32 | -2.3 ± 0.14
79 | CCAAAGCAAUAUUACGUCAG | -1.64 ± 0.065 | -0.149 ± 0.08
80 | CCAAAGCAAUAUUACGUCAU | -3.8 ± 0.2 | -2.87 ± 0.22
81 | CCAAAGCAAUAUUACGUUGA | -3.42 ± 0.29 | -0.401 ± 0.14
82 | CCAAAGCAAUAUUACGUUGU | -3.77 ± 0.12 | -2.44 ± 0.12
83 | CCACAGCAAUAUUACGAACG | -0.247 ± 0.07 | -0.267 ± 0.075
84 | CCACAGCAAUAUUACGACAA | -3.09 ± 0.22 | -1.91 ± 0.17
85 | CCACAGCAAUAUUACGAGUC | -3.55 ± 0.24 | -2.7 ± 0.22
86 | CCACAGCAAUAUUACGAUGA | -1.9 ± 0.11 | -1.77 ± 0.12
87 | CCACAGCAAUAUUACGCAGG | -3.97 ± 0.27 | -2.35 ± 0.23
88 | CCACAGCAAUAUUACGCCUC | -2.9 ± 0.26 | -2.58 ± 0.35
89 | CCACAGCAAUAUUACGCGAC | -2.75 ± 0.17 | -2.76 ± 0.26
90 | CCACAGCAAUAUUACGCUGA | -2.51 ± 0.12 | -3.16 ± 0.24
91 | CCACAGCAAUAUUACGGCCA | -3.79 ± 0.29 | -2.75 ± 0.27
92 | CCACAGCAAUAUUACGGCGA | -3.36 ± 0.18 | -1.63 ± 0.13
93 | CCACAGCAAUAUUACGGCUA | -3.88 ± 0.16 | -2.89 ± 0.15
94 | CCACAGCAAUAUUACGGGCU | -4.83 ± 0.27 | -3.07 ± 0.18
95 | CCACAGCAAUAUUACGGGGG | -2.71 ± 0.093 | -2.4 ± 0.16
96 | CCACAGCAAUAUUACGUCAC | -3.34 ± 0.15 | -2.86 ± 0.22
97 | CCACAGCAAUAUUACGUCGC | -3.63 ± 0.17 | -3.36 ± 0.22
